Reference: patent US20230167164A1 (IMMUNOWAKE, published 2023)

T1: mouse PD-1 (mouse, UniProt Q02242 25-167, limits assumed)
T1 construct: also called mPD-1
T1 sequence (looked up): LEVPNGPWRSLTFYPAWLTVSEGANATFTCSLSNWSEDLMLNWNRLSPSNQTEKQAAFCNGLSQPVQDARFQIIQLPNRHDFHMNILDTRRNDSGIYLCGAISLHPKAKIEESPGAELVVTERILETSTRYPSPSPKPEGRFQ


Experiments:
human PD-1 = target: T2, human PD-1 (human, UniProt Q15116 25-167, limits assumed); assay: PD-L2-Fc format, calibrated on PD-L2(wt)-Fc binding affinity
T2 construct: nivolumab is called an anti-human PD-1 antibody; also called hPD-1

mouse PD-1 = target: T1, mouse PD-1; assay: as above
human CD4 on cells = target: T3, human CD4 on cells (human, UniProt P01730 26-458); assay: FACS on CD4+ T cells
T3 construct: whole, on cells; also called CD4+ T cells; HEK-CD4-IFN-γ cells

[1] = target: human IL-12 receptor complex (human, UniProt P42701 24-662; Q99665 24-862); assay: cell-based or functional assay
Chain of human IL-12 receptor complex (Q99665 24-862, chain 2 of 2, other chains not shown): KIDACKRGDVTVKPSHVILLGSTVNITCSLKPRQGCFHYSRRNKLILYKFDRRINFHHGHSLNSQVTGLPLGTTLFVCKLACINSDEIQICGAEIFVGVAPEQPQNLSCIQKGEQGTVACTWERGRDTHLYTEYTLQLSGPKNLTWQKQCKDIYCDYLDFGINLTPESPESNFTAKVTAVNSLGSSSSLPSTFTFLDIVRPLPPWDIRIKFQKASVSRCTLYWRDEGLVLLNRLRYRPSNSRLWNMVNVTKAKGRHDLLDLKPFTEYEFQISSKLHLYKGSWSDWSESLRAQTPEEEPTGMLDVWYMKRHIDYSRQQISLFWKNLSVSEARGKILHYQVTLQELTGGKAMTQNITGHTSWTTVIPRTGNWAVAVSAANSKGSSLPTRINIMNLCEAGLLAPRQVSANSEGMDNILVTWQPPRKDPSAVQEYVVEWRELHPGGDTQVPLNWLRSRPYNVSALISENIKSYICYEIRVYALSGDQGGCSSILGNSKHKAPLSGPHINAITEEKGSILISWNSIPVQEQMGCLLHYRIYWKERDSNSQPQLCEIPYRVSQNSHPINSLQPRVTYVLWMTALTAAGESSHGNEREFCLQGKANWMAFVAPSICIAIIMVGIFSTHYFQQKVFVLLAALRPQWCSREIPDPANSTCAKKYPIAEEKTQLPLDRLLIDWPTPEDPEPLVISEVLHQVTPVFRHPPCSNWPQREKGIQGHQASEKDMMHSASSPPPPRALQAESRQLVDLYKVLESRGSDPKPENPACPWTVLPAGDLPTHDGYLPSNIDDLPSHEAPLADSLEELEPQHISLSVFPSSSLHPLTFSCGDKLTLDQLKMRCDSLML

T2 sequence (Q15116 25-167 limits assumed): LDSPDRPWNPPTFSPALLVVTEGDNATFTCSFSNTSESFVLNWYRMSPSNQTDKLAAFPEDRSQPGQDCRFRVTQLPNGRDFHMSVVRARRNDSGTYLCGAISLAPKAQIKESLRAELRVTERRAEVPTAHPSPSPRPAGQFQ

Kd (human PD-1) [nM]	Kd (mouse PD-1) [nM]	binding result (human CD4 on cells)	IFN-γ release, % of rIL-12, activated CD4+ T cells [1] [%]	Binder
490	320	–	–	PD-L2(mut3)-Fc (Fc fusion, also called Q60L) chain 1: LFTVTVPKELYIIEHGSNVTLECNFDTGSHVNLGAITASLLKVENDTSPHRERATLLEEQLPLGKASFHIPQVQVRDEGQYQCIIIYGVAWDYKYLTLKVKASYRKINTHILKVPETDEVELTCQATGYPLAEVSWPNVSVPANTSHSRTPEGLYQVTSVLRLKPPPGRNFSCVFWNTHVRELTLASIDLQSQMEPRTHPTDKTHTCPPCPAPEDEGGPSVFLFPPKPKDTLMISRTPEVTCVVVDVSHEDPEVKFNWYVDGVEVHNAKTKPREEQYNSTYRVVSVLTVLHQDWLNGKEYKCKVSNKALPAPIEKTISKAKGQPREPQVYVYPPSREEMTKNQVSLTCLVKGFYPSDIAVEWESNGQPENNYKTTPPVLDEDGSFALVSKLTVDKSRWQQGNVFSCSVMHEALHNHYTQKSLSLSPGK chain 2: LFTVTVPKELYIIEHGSNVTLECNFDTGSHVNLGAITASLLKVENDTSPHRERATLLEEQLPLGKASFHIPQVQVRDEGQYQCIIIYGVAWDYKYLTLKVKASYRKINTHILKVPETDEVELTCQATGYPLAEVSWPNVSVPANTSHSRTPEGLYQVTSVLRLKPPPGRNFSCVFWNTHVRELTLASIDLQSQMEPRTHPTDKTHTCPPCPAPEKKGGPSVFLFPPKPKDTLMISRTPEVTCVVVDVSHEDPEVKFNWYVDGVEVHNAKTKPREEQYNSTYRVVSVLTVLHQDWLNGKEYKCKVSNKALPAPIEKTISKAKGQPREPQVYVLPPSREEMTKNQVSLLCLVKGFYPSDIAVEWESNGQPENRYMTWPPVLDSDGSFFLYSKLTVDKSRWQQGNVFSCSVMHEALHNHYTQKSLSLSPGK
255	220	–	–	PD-L2(mut4)-Fc (Fc fusion, also called PD-L2(T56V/S58V/Q60L)) chain 1: LFTVTVPKELYIIEHGSNVTLECNFDTGSHVNLGAIVAVLLKVENDTSPHRERATLLEEQLPLGKASFHIPQVQVRDEGQYQCIIIYGVAWDYKYLTLKVKASYRKINTHILKVPETDEVELTCQATGYPLAEVSWPNVSVPANTSHSRTPEGLYQVTSVLRLKPPPGRNFSCVFWNTHVRELTLASIDLQSQMEPRTHPTDKTHTCPPCPAPEDEGGPSVFLFPPKPKDTLMISRTPEVTCVVVDVSHEDPEVKFNWYVDGVEVHNAKTKPREEQYNSTYRVVSVLTVLHQDWLNGKEYKCKVSNKALPAPIEKTISKAKGQPREPQVYVYPPSREEMTKNQVSLTCLVKGFYPSDIAVEWESNGQPENNYKTTPPVLDEDGSFALVSKLTVDKSRWQQGNVFSCSVMHEALHNHYTQKSLSLSPGK chain 2: LFTVTVPKELYIIEHGSNVTLECNFDTGSHVNLGAIVAVLLKVENDTSPHRERATLLEEQLPLGKASFHIPQVQVRDEGQYQCIIIYGVAWDYKYLTLKVKASYRKINTHILKVPETDEVELTCQATGYPLAEVSWPNVSVPANTSHSRTPEGLYQVTSVLRLKPPPGRNFSCVFWNTHVRELTLASIDLQSQMEPRTHPTDKTHTCPPCPAPEKKGGPSVFLFPPKPKDTLMISRTPEVTCVVVDVSHEDPEVKFNWYVDGVEVHNAKTKPREEQYNSTYRVVSVLTVLHQDWLNGKEYKCKVSNKALPAPIEKTISKAKGQPREPQVYVLPPSREEMTKNQVSLLCLVKGFYPSDIAVEWESNGQPENRYMTWPPVLDSDGSFFLYSKLTVDKSRWQQGNVFSCSVMHEALHNHYTQKSLSLSPGK
–	–	no binding	21	Fab-IL-12(WT)-Fc-CD8 Ab (other) heavy 1: EVQLQQSGPELVKPGASVKMSCKASGYTFTDYYMKWVKQSHGKSLEWIGHINPNNDDTFYTQKFKGRATLTVDKSSSTAYMQLNSLTSEDSAVYYCVRDDYDGGWFAYWGQGTLVTVSSASTKGPSVFPLAPSSKSTSGGTAALGCLVKDYFPEPVTVSWNSGALTSGVHTFPAVLQSSGLYSLSSVVTVPSSSLGTQTYICNVNHKPSNTKVDKKVEPKSCDKPGSGIWELKKDVYVVELDWYPDAPGEMVVLTCDTPEEDGITWTLDQSSEVLGSGKTLTIQVKEFGDAGQYTCHKGGEVLSHSLLLLHKKEDGIWSTDILKDQKEPKNKTFLRCEAKNYSGRFTCWWLTTISTDLTFSVKSSRGSSDPQGVTCGAATLSAERVRGDNKEYEYSVECQEDSACPAAEESLPIEVMVDAVHKLKYENYTSSFFIRDIIKPDPPKNLQLKPLKNSRQVEVSWEYPDTWSTPHSYFSLTFCVQVQGKSKREKKDRVFTDKTSATVICRKNASISVRAQDRYYSSSWSEWASVPCSGGGGSGGGGSGGGGSGGGGSGRNLPVATPDPGMFPCLHHSQNLLRAVSNMLQKARQTLEFYPCTSEEIDHEDITKDKTSTVEACLPLELTKNESCLNSRETSFITNGSCLASRKTSFMMALCLSSIYEDLKMYQVEFKTMNAKLLMDPKRQIFLDQNMLAVIDELMQALNFNSETVPQKSSLEEPDFYKTKIKLCILLHAFRIRAVTIDRVMSYLNASDKTHTCPPCPAPEDEGGPSVFLFPPKPKDTLMISRTPEVTCVVVDVSHEDPEVKFNWYVDGVEVHNAKTKPREEQYNSTYRVVSVLTVLHQDWLNGKEYKCKVSNKALPAPIEKTISKAKGQPREPQVYVYPPSREEMTKNQVSLTCLVKGFYPSDIAVEWESNGQPENNYKTTPPVLDEDGSFALVSKLTVDKSRWQQGNVFSCSVMHEALHNHYTQKSLSLSPGK heavy 2: EVQLQQSGPELVKPGASVKMSCKASGYTFTDYYMKWVKQSHGKSLEWIGHINPNNDDTFYTQKFKGRATLTVDKSSSTAYMQLNSLTSEDSAVYYCVRDDYDGGWFAYWGQGTLVTVSSASTKGPSVFPLAPSSKSTSGGTAALGCLVKDYFPEPVTVSWNSGALTSGVHTFPAVLQSSGLYSLSSVVTVPSSSLGTQTYICNVNHKPSNTKVDKKVEPKSCDKTHTCPPCPAPEKKGGPSVFLFPPKPKDTLMISRTPEVTCVVVDVSHEDPEVKFNWYVDGVEVHNAKTKPREEQYNSTYRVVSVLTVLHQDWLNGKEYKCKVSNKALPAPIEKTISKAKGQPREPQVYVLPPSREEMTKNQVSLLCLVKGFYPSDIAVEWESNGQPENRYMTWPPVLDSDGSFFLYSKLTVDKSRWQQGNVFSCSVMHEALHNHYTQKSLSLSPGK light: DIQMTQTTSSLSASLGDRVTISCRASQDINNYLNWYQQKSDGTIKLLIYYTSRSYSGVPSRFSGSGSGTDYSLTISNRRQEDIATYFCQQGKTLPWTFGGGTKLEIKRTVAAPSVFIFPPSDEQLKSGTASVVCLLNNFYPREAKVQWKVDNALQSGNSQESVTEQDSKDSTYSLSSTLTLSKADYEKHKVYACEVTHQGLSSPVTKSFNRGEC
–	–	no binding	2.1	Fab-IL-12(E59A)-Fc-CD8 Ab (other) heavy 1: EVQLQQSGPELVKPGASVKMSCKASGYTFTDYYMKWVKQSHGKSLEWIGHINPNNDDTFYTQKFKGRATLTVDKSSSTAYMQLNSLTSEDSAVYYCVRDDYDGGWFAYWGQGTLVTVSSASTKGPSVFPLAPSSKSTSGGTAALGCLVKDYFPEPVTVSWNSGALTSGVHTFPAVLQSSGLYSLSSVVTVPSSSLGTQTYICNVNHKPSNTKVDKKVEPKSCDKPGSGIWELKKDVYVVELDWYPDAPGEMVVLTCDTPEEDGITWTLDQSSEVLGSGKTLTIQVKAFGDAGQYTCHKGGEVLSHSLLLLHKKEDGIWSTDILKDQKEPKNKTFLRCEAKNYSGRFTCWWLTTISTDLTFSVKSSRGSSDPQGVTCGAATLSAERVRGDNKEYEYSVECQEDSACPAAEESLPIEVMVDAVHKLKYENYTSSFFIRDIIKPDPPKNLQLKPLKNSRQVEVSWEYPDTWSTPHSYFSLTFCVQVQGKSKREKKDRVFTDKTSATVICRKNASISVRAQDRYYSSSWSEWASVPCSGGGGSGGGGSGGGGSGGGGSGRNLPVATPDPGMFPCLHHSQNLLRAVSNMLQKARQTLEFYPCTSEEIDHEDITKDKTSTVEACLPLELTKNESCLNSRETSFITNGSCLASRKTSFMMALCLSSIYEDLKMYQVEFKTMNAKLLMDPKRQIFLDQNMLAVIDELMQALNFNSETVPQKSSLEEPDFYKTKIKLCILLHAFRIRAVTIDRVMSYLNASDKTHTCPPCPAPEDEGGPSVFLFPPKPKDTLMISRTPEVTCVVVDVSHEDPEVKFNWYVDGVEVHNAKTKPREEQYNSTYRVVSVLTVLHQDWLNGKEYKCKVSNKALPAPIEKTISKAKGQPREPQVYVYPPSREEMTKNQVSLTCLVKGFYPSDIAVEWESNGQPENNYKTTPPVLDEDGSFALVSKLTVDKSRWQQGNVFSCSVMHEALHNHYTQKSLSLSPGK heavy 2: EVQLQQSGPELVKPGASVKMSCKASGYTFTDYYMKWVKQSHGKSLEWIGHINPNNDDTFYTQKFKGRATLTVDKSSSTAYMQLNSLTSEDSAVYYCVRDDYDGGWFAYWGQGTLVTVSSASTKGPSVFPLAPSSKSTSGGTAALGCLVKDYFPEPVTVSWNSGALTSGVHTFPAVLQSSGLYSLSSVVTVPSSSLGTQTYICNVNHKPSNTKVDKKVEPKSCDKTHTCPPCPAPEKKGGPSVFLFPPKPKDTLMISRTPEVTCVVVDVSHEDPEVKFNWYVDGVEVHNAKTKPREEQYNSTYRVVSVLTVLHQDWLNGKEYKCKVSNKALPAPIEKTISKAKGQPREPQVYVLPPSREEMTKNQVSLLCLVKGFYPSDIAVEWESNGQPENRYMTWPPVLDSDGSFFLYSKLTVDKSRWQQGNVFSCSVMHEALHNHYTQKSLSLSPGK light: DIQMTQTTSSLSASLGDRVTISCRASQDINNYLNWYQQKSDGTIKLLIYYTSRSYSGVPSRFSGSGSGTDYSLTISNRRQEDIATYFCQQGKTLPWTFGGGTKLEIKRTVAAPSVFIFPPSDEQLKSGTASVVCLLNNFYPREAKVQWKVDNALQSGNSQESVTEQDSKDSTYSLSSTLTLSKADYEKHKVYACEVTHQGLSSPVTKSFNRGEC
